Among the data in patent US20230340058A1 are Potency Assay EC50 (nM), transient hRXFP1 cAMP assay values, retold here.

For this experiment, the target named is human RXFP1, full-length (human), Q9HBX9. Kind of experiment: cell-based or functional assay.
Sequence of human RXFP1, full-length (human), Q9HBX9 (Q9HBX9 whole entry): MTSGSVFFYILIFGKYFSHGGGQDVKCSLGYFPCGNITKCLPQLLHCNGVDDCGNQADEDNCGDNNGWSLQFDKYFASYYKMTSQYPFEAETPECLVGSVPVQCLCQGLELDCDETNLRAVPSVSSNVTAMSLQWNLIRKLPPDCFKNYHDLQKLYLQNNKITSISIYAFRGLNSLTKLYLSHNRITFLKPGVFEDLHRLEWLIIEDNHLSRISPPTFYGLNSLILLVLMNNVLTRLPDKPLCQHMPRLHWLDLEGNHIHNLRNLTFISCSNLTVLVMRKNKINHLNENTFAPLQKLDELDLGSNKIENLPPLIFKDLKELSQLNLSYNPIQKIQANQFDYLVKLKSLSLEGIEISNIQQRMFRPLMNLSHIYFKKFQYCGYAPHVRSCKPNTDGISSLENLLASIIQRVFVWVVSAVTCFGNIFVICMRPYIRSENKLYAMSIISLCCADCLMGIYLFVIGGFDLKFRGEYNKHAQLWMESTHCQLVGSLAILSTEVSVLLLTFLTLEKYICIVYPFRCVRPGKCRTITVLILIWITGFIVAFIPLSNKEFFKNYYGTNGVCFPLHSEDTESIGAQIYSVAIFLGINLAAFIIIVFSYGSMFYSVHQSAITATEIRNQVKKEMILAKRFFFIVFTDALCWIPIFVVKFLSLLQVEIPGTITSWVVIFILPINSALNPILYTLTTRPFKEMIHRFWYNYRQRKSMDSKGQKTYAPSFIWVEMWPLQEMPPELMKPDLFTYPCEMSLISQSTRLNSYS

B1: SEQ ID NO: 85 (Fc fusion)
chain: DKTHTCPPCPAPEAAGGPSVFLFPPKPKDTLMISRTPEVTCVVVDVSHEDPEVKFNWYVDGVEVHNAKTKPREEQYNSTYRVVSVLTVLHQDWLNGKEYKCKVSNKALAAPIEKTISKAKGQPREPQVYTLPPSRDELTKNQVSLTCLVKGFYPSDIAVEWESNGQPENNYKTTPPVLDSDGSFFLYSKLTVDKSRWQQGNVFSCSVLHEALHSHYTQKSLSLSPGKGGSDSWQEEVIKLCGRELVRAQIAICGKSTGGEGEGGEGEGGSRQDYSALANKCCHVGCTKRSLAQFC
As to B1, the Potency Assay EC50 (nM), transient hRXFP1 cAMP assay was found to be 54.4 nM.

B2: SEQ ID NO: 83 (Fc fusion)
chain: DKTHTCPPCPAPEAAGGPSVFLFPPKPKDTLMISRTPEVTCVVVDVSHEDPEVKFNWYVDGVEVHNAKTKPREEQYNSTYRVVSVLTVLHQDWLNGKEYKCKVSNKALAAPIEKTISKAKGQPREPQVYTLPPSRDELTKNQVSLTCLVKGFYPSDIAVEWESNGQPENNYKTTPPVLDSDGSFFLYSKLTVDKSRWQQGNVFSCSVLHEALHSHYTQKSLSLSPGGGSDSWQEEVIKLCGRELVRAQIAICGKSTGGEGEGGEGEGGSRQLYSALANKCCHVGCTKRSLARFC
Take B2: the Potency Assay EC50 (nM), transient hRXFP1 cAMP assay came out at 9.3 nM.

B3: SEQ ID NO: 84 (Fc fusion)
chain: DKTHTCPPCPAPEAAGGPSVFLFPPKPKDTLMISRTPEVTCVVVDVSHEDPEVKFNWYVDGVEVHNAKTKPREEQYNSTYRVVSVLTVLHQDWLNGKEYKCKVSNKALAAPIEKTISKAKGQPREPQVYTLPPSRDELTKNQVSLTCLVKGFYPSDIAVEWESNGQPENNYKTTPPVLDSDGSFFLYSKLTVDKSRWQQGNVFSCSVLHEALHSHYTQKSLSLSPGGGSDSWQEEVIKLCGRELVRAQIAICGKSTGGEGEGGEGEGGSRQLYSALANKCCHVGCTKRSLAQFC
On to B3, for which the Potency Assay EC50 (nM), transient hRXFP1 cAMP assay amounted to 41.9 nM.
